The record followed here is patent publication US20260078185A1 (published 2026).

The target of assay [1] is T1, Human VISTA recombinant protein (Sino Biological Inc., Cat. #13482-H08H), biotinylated (UniProt Q9H7M9 33-194, biotinylated using EZ-LINK NHS-PEG4 biotin). The assay can be described thus: Octet BLI.
Assay [2] addresses T2, mouse VISTA recombinant protein (Sino Biological Inc., Cat. #51550-M08H), biotinylated (mouse, UniProt Q9D659 33-191, biotinylated using EZ-LINK NHS-PEG4 biotin).
T2 chain: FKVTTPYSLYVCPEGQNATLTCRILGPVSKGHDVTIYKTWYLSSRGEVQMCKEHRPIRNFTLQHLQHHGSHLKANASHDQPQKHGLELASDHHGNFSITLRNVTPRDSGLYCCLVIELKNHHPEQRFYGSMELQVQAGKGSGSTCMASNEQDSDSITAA
Kind of assay: Octet (BLI). For orientation: BLI is a label-free optical method that tracks binding on a fibre tip over time.

Assay [3] addresses T1, Human VISTA recombinant protein (Sino …). Kind of assay: Octet BLI. The source holds these as a separate data set.
The target in assay [4] is T2, mouse VISTA recombinant protein (Sino …). The assay can be described thus: Octet (BLI).
The target in assay [5] is T1, Human VISTA recombinant protein (Sino …). Kind of assay: Octet BLI. This is another data set of the same source.

Changes are numbered by the printed parent chain. Where two headings read alike, the source gives them in different places.

T1 sequence (Q9H7M9 33-194): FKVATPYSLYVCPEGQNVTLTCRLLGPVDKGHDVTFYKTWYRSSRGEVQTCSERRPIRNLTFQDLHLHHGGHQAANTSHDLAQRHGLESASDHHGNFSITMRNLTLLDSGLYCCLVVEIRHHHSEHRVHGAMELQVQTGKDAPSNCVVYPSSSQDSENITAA

B1: 9F9 humanized anti-VISTA antibody VH9/VL9 (antibody, V domains shown)
VH: QVQFVQSGAEVKKPGSSVKVSCKASGYTFSGYWMQWVKQAPGQGLEWIGAIYPGDGDTRYSQKFKGKVTLTADESTSTAYMELSSLRSEDTAVYYCARRDYGAWFAYWGQGTLVTVSS
VL: DIKVTQSPSSLSASVGDRVTITCKASQDINSYLSWYQQKPGKAPKTLIYRANRLVDGVPSRFSGSGSGQDYTFTISSLQPEDIATYYCLQYDEFPYTFGQGTKVEIK
As a reminder, the Kd is a measure of binding affinity in units of concentration. In the case of B1, the equilibrium dissociation constant (Kd) is 26.6 nM in assay [1], 23.9 nM in assay [2], 37.7 nM in assay [3] and 607 nM in assay [4].

B2: 9F9 humanized anti-VISTA antibody VH7/VL7 (antibody, V domains shown)
VH: B1 VH with S16A, S30T, G44R, E74T, T76A
VL: B1 VL with D70E, F73L, I83F
As to B2, the Kd in assay [3] was found to be 56.7 nM; in assay [4], 866 nM.

B3: 9F9-VH8/VL8 (antibody, V domains shown)
VH: B1 VH with S16A, S30T, E74K
VL: B1 VL with G41E, Q69T, Y71F, F73L, I83F
Regarding B3, the dissociation constant (Kd) in assay [3] was found to be 36.6 nM; in assay [4] it was 336 nM.

B4: 9F9 parental anti-VISTA antibody (VH0/VL0) (antibody, V domains shown)
VH: QVQFQQSGAELARPGASVKLSCKASGYTFTGYWMQWVKQRPGQGLEWIGAIYPGDGDTRYSQKFKGKVTLTADKSSSTAYMQLSSLASEDSAVYYCARRDYGAWFAYWGQGTLVTVSA
VL: DIKVTQSPSSMYASLGERVTITCKASQDINSYLSWFQQKPGKSPKTLIYRANRLVDGVPSRFSGSGSGQDYSLTISSLDYEDMGIYYCLQYDEFPYTFGGGTKLEIK
In the case of B4, the equilibrium dissociation constant (Kd) in assay [1] was 9.45 nM; in assay [2], 12.2 nM; in assay [3], 8.65 nM; in assay [4], 5.03 nM.

B5: 20E4-VH1/VL1 (antibody, V domains shown)
VH: QVQLVQSGAEVKKPGASVKVSCKASGYTFSSSWVEWVRQAPGQGLEWMGEIFPGSGSTHYNEKFKGRVTMTRDTSISTAYMELSRLRSDDTAVYYCARRPPGWFFDVWGQGTTVTVSS
VL: DIQMTQSPSSLSASVGDRVTITCKASQDVSTDVAWYQQKPGKAPKLLIYSASYRYTGVPSRFSGSGSGTDFTLTISSLQPEDFATYYCQQHYSTPWTFGGGTKVEIK
Take B5: the Kd in assay [5] was 3.54 nM.

B6: 20E4-VH4/VL4 (antibody, V domains shown)
VH: B5 VH with S30T, I76T, A79V, R85S, D89E, T113M
VL: DIVMTQSPDSLAVSLGERATINCKASQDVSTDVAWYQQKPGQPPKLLIYSASYRYTGVPDRFSGSGSGTDFTLTISSLQAEDVAVYYCQQHYSTPWTFGGGTKVEIK
On to B6, for which the dissociation constant Kd in assay [5] is 6.22 nM.

B7: 20E4-VH3/VL3 (antibody, V domains shown)
VH: B5 VH with K12M, V20I, S25T, A40R, M48I, R67K, V68A, R72A, Q110A
VL: B5 VL with Q3V, L73F, L78V, F83L, T85V, V104L
On to B7, for which, in assay [5], the Kd stood at 3.09 nM.

B8: 9F9 humanized anti-VISTA antibody VH15/VL15 (antibody, V domains shown)
VH: QVQLVQSGAEVMKPGASVKLSCKASGYTFTGYWMQWVKQRPGQGLEWIGAIYPGDGDTRYSQKFKGKATMTADTSISTAYMELSRLRSDDSAVYYCARRDYGAWFAYWGAGTTVTVSS
VL: DIVMTQSPSSLSASVGERVTITCKASQDINSYLSWFQQKPGKAPKTLIYRANRLVDGVPSRFSGSGSGTDFTFTISSVQPEDLAIYYCLQYDEFPYTFGGGTKLEIK
Consider B8, for which the dissociation constant Kd stood at 24.4 nM in assay [1] and 20.8 nM in assay [2].

B9: 9F9 humanized anti-VISTA antibody VH14/VL15 (antibody, V domains shown)
VH: B8 VH with L20I, K38R, S91T
VL: B8 VL
As for B9, the equilibrium dissociation constant (Kd) was 20.3 nM in assay [1] and 17.5 nM in assay [2].

B10: 20E4 parental anti-VISTA antibody (VH0/VL0) (antibody, V domains shown)
VH: QVQLQQSGAELMKPGASVKISCKATGYTFSSSWVEWVRQRPGHGLEWIGEIFPGSGSTHYNEKFKGKATFTADTSSNTAYLQLSSLTSDDSAVYYCARRPPGWFFDVWGAGTTVTVSS
VL: DIVMTQSHKFMSTSVGDRVSITCKASQDVSTDVAWYQQKPGQSPKLLIYSASYRYTGVPDRFTGSGSGTDFTFTISSVQAEDLAVYYCQQHYSTPWTFGGGTKLEIK
Take B10: the dissociation constant (Kd) in assay [5] came out at 4.37 nM.
